B1: ADAMTSL2 (parent)
chain: KKPPEESTCFERPCFKWYTSPWSE

Variants of: B1
Test: protein stability index of a GFP-peptide fusion (GPS, HEK-293T) (PSI 1-6); higher = more stable
Details: c terminus: a fixed tail appended
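Note: lentivirally expressed fusions sorted by FACS into six bins by GFP to DsRed ratio, PSI derived from sequencing read proportions per bin multiplied by bin number.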

| Variant | protein stability index |
| --- | --- |
| KKPPEESTCFERPCFKWCTSPWSE | 2.33 |
| KKPPEESTCFERPCFKWTTSPWSE | 3 |
| KKPPEESTCFERPCFKWRTSPWSE | 2.71 |
| KKPPEESTCFERPCFKWDTSPWSE | 3.48 |
| KKPPEESTCFERPCFKWGTSPWSE | 2.99 |
| KKPPEESTCFERPCFKWWTSPWSE | 2.57 |
| KKPPEESTCFERPCFKWSTSPWSE | 3.18 |
| KKPPEESTCFERPCFKWQTSPWSE | 2.58 |
| KKPPEESTCFERPCFKWETSPWSE | 3.15 |
| KKPPEESTCFERPCFKWLTSPWSE | 2.45 |
| KKPPEESTCFERPCFKWPTSPWSE | 3.02 |
| KKPPEESTCFERPCFKWKTSPWSE | 3.04 |
| KKPPEESTCFERPCFKWHTSPWSE | 2.97 |
| KKPPEESTCFERPCFKWNTSPWSE | 2.81 |
| KKPPEESTCFERPCFKWMTSPWSE | 2.38 |
| KKPPEESTCFERPCFKWATSPWSE | 2.87 |
| KKPPEESTCFERPCFKWFTSPWSE | 1.86 |
| KKPPEESTCFERPCFKWITSPWSE | 2.15 |
| KKPPEESTCFERPCFKWVTSPWSE | 2.22 |
| KKPPEESTCFERNCFKWYTSPWSE | 2.32 |
| KKPPEESTCFERFCFKWYTSPWSE | 2.18 |
| KKPPEESTCFERICFKWYTSPWSE | 2.02 |
| KKPPEESTCFERACFKWYTSPWSE | 2.23 |
| KKPPEESTCFERRCFKWYTSPWSE | 1.79 |

| Variant | protein stability index |
| --- | --- |
| KKPPEESTCFERQCFKWYTSPWSE | 2.1 |
| KKPPEESTCFERKCFKWYTSPWSE | 2.58 |
| KKPPEESTCFERDCFKWYTSPWSE | 2.39 |
| KKPPEESTCFERSCFKWYTSPWSE | 2.31 |
| KKPPEESTCFERMCFKWYTSPWSE | 2.02 |
| KKPPEESTCFERVCFKWYTSPWSE | 1.96 |
| KKPPEESTCFERCCFKWYTSPWSE | 1.84 |
| KKPPEESTCFERTCFKWYTSPWSE | 2.16 |
| KKPPEESTCFERHCFKWYTSPWSE | 2.21 |
| KKPPEESTCFERYCFKWYTSPWSE | 1.87 |
| KKPPEESTCFERLCFKWYTSPWSE | 2.09 |
| KKPPEESTCFERECFKWYTSPWSE | 2.49 |
| KKPPEESTCFERGCFKWYTSPWSE | 2.27 |
| KKPPEESTCFEWPCFKWYTSPWSE | 2.24 |
| KKPPEESTCFEYPCFKWYTSPWSE | 2.84 |
| KKPPEESTCFEPPCFKWYTSPWSE | 2.77 |
| KKPPEESTCFEMPCFKWYTSPWSE | 2.16 |
| KKPPEESTCFESPCFKWYTSPWSE | 2.79 |
| KKPPEESTCFELPCFKWYTSPWSE | 2.04 |
| KKPPEESTCFEKPCFKWYTSPWSE | 2.5 |
| KKPPEESTCFECPCFKWYTSPWSE | 1.69 |
| KKPPEESTCFEIPCFKWYTSPWSE | 2.03 |
| KKPPEESTCFEFPCFKWYTSPWSE | 1.71 |
| KKPPEESTCFEHPCFKWYTSPWSE | 2.63 |

| Variant | protein stability index |
| --- | --- |
| KKPPEESTCFENPCFKWYTSPWSE | 2.55 |
| KKPPEESTCFEVPCFKWYTSPWSE | 2.29 |
| KKPPEESTCFEGPCFKWYTSPWSE | 2.42 |
| KKPPEESTCFEAPCFKWYTSPWSE | 2.65 |
| KKPPEESTCFEDPCFKWYTSPWSE | 3 |
| KKPPEESTCFEQPCFKWYTSPWSE | 2.3 |
| KKPPEESTCFEEPCFKWYTSPWSE | 2.95 |
| KKPPEESTCFETPCFKWYTSPWSE | 2.09 |
| KKPPEESTCFERPCFKTYTSPWSE | 2.9 |
| KKPPEESTCFERPCFKVYTSPWSE | 2.52 |
| KKPPEESTCFERPCFKAYTSPWSE | 3.79 |
| KKPPEESTCFERPCFKRYTSPWSE | 2.96 |
| KKPPEESTCFERPCFKIYTSPWSE | 2.46 |
| KKPPEESTCFERPCFKLYTSPWSE | 2.37 |
| KKPPEESTCFERPCFKKYTSPWSE | 3.53 |
| KKPPEESTCFERPCFKMYTSPWSE | 2.9 |
| KKPPEESTCFERPCFKFYTSPWSE | 2.88 |
| KKPPEESTCFERPCFKQYTSPWSE | 2.85 |
| KKPPEESTCFERPCFKCYTSPWSE | 2.56 |
| KKPPEESTCFERPCFKDYTSPWSE | 3.6 |
| KKPPEESTCFERPCFKHYTSPWSE | 2.57 |
| KKPPEESTCFERPCFKEYTSPWSE | 3.19 |
| KKPPEESTCFERPCFKPYTSPWSE | 3.5 |
| KKPPEESTCFERPCFKGYTSPWSE | 3.35 |

| Variant | protein stability index |
| --- | --- |
| KKPPEESTCFERPCFKYYTSPWSE | 2.86 |
| KKPPEESTCFERPCFKSYTSPWSE | 3.33 |
| KKPPEESTCFERPCFKNYTSPWSE | 3.42 |
| KKPPEESTCFERPCFKWYTSGWSE | 2.16 |
| KKPPEESTCFERPCFKWYTSHWSE | 2.46 |
| KKPPEESTCFERPCFKWYTSQWSE | 2.2 |
| KKPPEESTCFERPCFKWYTSAWSE | 2.41 |
| KKPPEESTCFERPCFKWYTSMWSE | 1.44 |
| KKPPEESTCFERPCFKWYTSIWSE | 2.38 |
| KKPPEESTCFERPCFKWYTSCWSE | 2.39 |
| KKPPEESTCFERPCFKWYTSKWSE | 2.7 |
| KKPPEESTCFERPCFKWYTSFWSE | 1.78 |
| KKPPEESTCFERPCFKWYTSNWSE | 2.16 |
| KKPPEESTCFERPCFKWYTSLWSE | 2.4 |
| KKPPEESTCFERPCFKWYTSRWSE | 2.17 |
| KKPPEESTCFERPCFKWYTSEWSE | 2.72 |
| KKPPEESTCFERPCFKWYTSDWSE | 3.04 |
| KKPPEESTCFERPCFKWYTFPWSE | 2.02 |
| KKPPEESTCFERPCFKWYTRPWSE | 2.86 |
| KKPPEESTCFERPCFKWYTTPWSE | 2.15 |
| KKPPEESTCFERPCFKWYTQPWSE | 2.35 |
| KKPPEESTCFERPCFKWYTVPWSE | 1.93 |
| KKPPEESTCFERPCFKWYTIPWSE | 2.59 |
| KKPPEESTCFERPCFKWYTKPWSE | 2.61 |

| Variant | protein stability index |
| --- | --- |
| KKPPEESTCFERPCFKWYTYPWSE | 2.37 |
| KKPPEESTCFERPCFKWYTCPWSE | 1.99 |
| KKPPEESTCFERPCFKWYTGPWSE | 2.29 |
| KKPPEESTCFERPCFKWYTHPWSE | 2.25 |
| KKPPEESTCFERPCFKWYTMPWSE | 2.08 |
| KKPPEESTCFERPCFKWYTLPWSE | 1.95 |
| KKPPEESTCFERPCFKWYTNPWSE | 2.58 |
| KKPPEESTCFERPCFKWYTPPWSE | 2.04 |
| KKPPEESTCFERPCFKWYTWPWSE | 4.33 |
| KKPPEESTCFERPCFKWYTEPWSE | 2.11 |
| KKPPEESTCFERPCFKWYTAPWSE | 2.88 |
| KKPPEESTCFERPCFKWYTDPWSE | 2.42 |
| KKPPEESTCFERPCFKWYMSPWSE | 2.2 |
| KKPPEESTCFERPCFKWYASPWSE | 2.28 |
| KKPPEESTCFERPCFKWYRSPWSE | 2.22 |
| KKPPEESTCFERPCFKWYDSPWSE | 2.65 |
| KKPPEESTCFERPCFKWYKSPWSE | 2.03 |
| KKPPEESTCFERPCFKWYESPWSE | 3.38 |
| KKPPEESTCFERPCFKWYVSPWSE | 2.78 |
| KKPPEESTCFERPCFKWYWSPWSE | 2.05 |
| KKPPEESTCFERPCFKWYCSPWSE | 2.13 |
| KKPPEESTCFERPCFKWYPSPWSE | 2.86 |
| KKPPEESTCFERPCFKWYISPWSE | 2.35 |
| KKPPEESTCFERPCFKWYLSPWSE | 2.73 |

| Variant | protein stability index |
| --- | --- |
| KKPPEESTCFERPCFKWYSSPWSE | 3.24 |
| KKPPEESTCFERPCFKWYNSPWSE | 3.43 |
| KKPPEESTCFERPCFKWYQSPWSE | 1.89 |
| KKPPEESTCFERPCFKWYYSPWSE | 1.84 |
| KKPPEESTCFERPCFKWYHSPWSE | 2.65 |
| KKPPEESTCFERPCFKWYFSPWSE | 2.28 |
| KKPPEESTCFERPCFKWYGSPWSE | 2.82 |
| KKPPEESTCFERPCNKWYTSPWSE | 2.63 |
| KKPPEESTCFERPCKKWYTSPWSE | 2.64 |
| KKPPEESTCFERPCRKWYTSPWSE | 2 |
| KKPPEESTCFERPCIKWYTSPWSE | 2.79 |
| KKPPEESTCFERPCLKWYTSPWSE | 1.61 |
| KKPPEESTCFERPCHKWYTSPWSE | 2.6 |
| KKPPEESTCFERPCGKWYTSPWSE | 2.25 |
| KKPPEESTCFERPCVKWYTSPWSE | 2.87 |
| KKPPEESTCFERPCYKWYTSPWSE | 2.77 |
| KKPPEESTCFERPCTKWYTSPWSE | 2.89 |
| KKPPEESTCFERPCPKWYTSPWSE | 2.31 |
| KKPPEESTCFERPCSKWYTSPWSE | 2.6 |
| KKPPEESTCFERPCMKWYTSPWSE | 2.06 |
| KKPPEESTCFERPCWKWYTSPWSE | 2.25 |
| KKPPEESTCFERPCDKWYTSPWSE | 3.26 |
| KKPPEESTCFERPCQKWYTSPWSE | 2.63 |
| KKPPEESTCFERPCEKWYTSPWSE | 3.25 |

| Variant | protein stability index |
| --- | --- |
| KKPPEESTCFERPCAKWYTSPWSE | 2.75 |
| KKPPEESTCFERPCCKWYTSPWSE | 2.93 |
| KKPPEESTCFYRPCFKWYTSPWSE | 2.19 |
| KKPPEESTCFTRPCFKWYTSPWSE | 2.05 |
| KKPPEESTCFWRPCFKWYTSPWSE | 1.64 |
| KKPPEESTCFVRPCFKWYTSPWSE | 2.06 |
| KKPPEESTCFERPCFNWYTSPWSE | 2.63 |
| KKPPEESTCFERPCFWWYTSPWSE | 1.86 |
| KKPPEESTCFERPCFMWYTSPWSE | 2.43 |
| KKPPEESTCFERPCFEWYTSPWSE | 3.35 |
| KKPPEESTCFERPCFIWYTSPWSE | 1.77 |
| KKPPEESTCFERPCFFWYTSPWSE | 1.9 |
| KKPPEESTCFERPCFGWYTSPWSE | 1.67 |
| KKPPEESTCFERPCFHWYTSPWSE | 4.02 |
| KKPPEESTCFERPCFAWYTSPWSE | 2.62 |
| KKPPEESTCFERPCFQWYTSPWSE | 2.8 |
| KKPPEESTCFERPCFDWYTSPWSE | 3.04 |
| KKPPEESTCFERPCFTWYTSPWSE | 2.22 |
| KKPPEESTCFERPCFVWYTSPWSE | 1.94 |
| KKPPEESTCFERPCFSWYTSPWSE | 2.49 |
| KKPPEESTCFERPCFCWYTSPWSE | 2.07 |
| KKPPEESTCFERPCFLWYTSPWSE | 2.51 |
| KKPPEESTCFERPCFPWYTSPWSE | 2.13 |
| KKPPEESTCFERPCFRWYTSPWSE | 2.27 |

| Variant | protein stability index |
| --- | --- |
| KKPPEESTCFERPCFYWYTSPWSE | 1.72 |
| KKPPEESTCFERPEFKWYTSPWSE | 2.89 |
| KKPPEESTCFERPVFKWYTSPWSE | 2.58 |
| KKPPEESTCFERPGFKWYTSPWSE | 3.12 |
| KKPPEESTCFERPWFKWYTSPWSE | 1.9 |
| KKPPEESTCFERPAFKWYTSPWSE | 2.94 |
| KKPPEESTCFERPIFKWYTSPWSE | 2.23 |
| KKPPEESTCFERPSFKWYTSPWSE | 2.23 |
| KKPPEESTCFERPHFKWYTSPWSE | 2.23 |
| KKPPEESTCFERPYFKWYTSPWSE | 2.02 |
| KKPPEESTCFERPMFKWYTSPWSE | 2.62 |
| KKPPEESTCFERPRFKWYTSPWSE | 3.7 |
| KKPPEESTCFERPTFKWYTSPWSE | 2.42 |
| KKPPEESTCFERPKFKWYTSPWSE | 2.69 |
| KKPPEESTCFERPQFKWYTSPWSE | 2.68 |
| KKPPEESTCFERPLFKWYTSPWSE | 2.25 |
| KKPPEESTCFERPFFKWYTSPWSE | 2.39 |
| KKPPEESTCFERPNFKWYTSPWSE | 2.98 |
| KKPPEESTCFERPPFKWYTSPWSE | 3.09 |
| KKPPEESTCFERPDFKWYTSPWSE | 3.26 |

Reference: the supplement of paper PMC10567573
